Kd data for four sequences are collected here from the Immune Epitope Database (IEDB).

Experiment [1] deals with HLA-B*07:02. The experiment can be described thus: IEDB peptide-MHC binding, purified MHC/direct/fluorescence; filed as Kd, often an IC50 or EC50 that approximates it; ≥ and ≤ were set here for values at or beyond the usual limits of such assays. The settings on record: source organism: Bacillus anthracis.
For a further experiment, the target named is HLA-A*11:01. The experiment is described as above. The settings on record: source organism: Bacillus anthracis.
For a further experiment, the target named is HLA-B*15:17. The description is as above.
In the next experiment the target is HLA-A*31:01. The description is as above. The settings on record: source organism: Bacillus anthracis.
Another experiment addresses HLA-B*51:01. The description is as above.
Another experiment deals with HLA-B*38:01. The description is as above. Particulars: source organism: Bacillus cereus 03BB108.
The target in experiment [2] is HLA-A*02:01. The description is as above.
The target of the next experiment is HLA-B*15:01. Described as above.
The next experiment addresses HLA-B*58:01. The experiment is described as above. Particulars: source organism: Bacillus anthracis.
A further experiment has as its target HLA-B*46:01. The description is as above.
Experiment [3] has as its target HLA-A*30:01. Described as above. The settings on record: source organism: Bacillus cereus 03BB108.
In a further experiment the target is HLA-B*40:01. The experiment is described as above. Particulars: source organism: Bacillus anthracis.
A further experiment addresses HLA-B*48:01. The experiment is described as above. Particulars: source organism: Bacillus anthracis.
In the next experiment the target is HLA-A*01:01. The experiment is described as above. Particulars: source organism: Bacillus anthracis.
Another experiment concerns the target HLA-B*27:05. Described as above. Particulars: source organism: Bacillus anthracis.
For another experiment, the target named is HLA-B*57:01. The experiment is described as above.
The target in a further experiment is HLA-B*18:01. The description is as above.
The target in another experiment is HLA-A*03:01. Described as above.
The target in the next experiment is HLA-B*15:09. The experiment in a line: IEDB peptide-MHC binding, purified MHC/competitive/fluorescence; filed as Kd, often an IC50 or EC50 that approximates it; ≥ and ≤ were set here for values at or beyond the usual limits of such assays.
Experiment [4] concerns the target HLA-A*69:01. The experiment is described as above. The settings on record: source organism: Bacillus anthracis str. A0488.
In the next experiment the target is HLA-A*24:03. The experiment in a line: IEDB peptide-MHC binding, purified MHC/direct/fluorescence; filed as Kd, often an IC50 or EC50 that approximates it; ≥ and ≤ were set here for values at or beyond the usual limits of such assays. Particulars: source organism: Cryptosporidium parvum Iowa II.
For a further experiment, the target named is HLA-A*02:16. Described as above. Particulars: source organism: Cryptosporidium parvum Iowa II.
Another experiment has as its target HLA-B*27:03. The experiment is described as above. The settings on record: source organism: Cryptosporidium parvum Iowa II.
In experiment [5] the target is HLA-A*68:02. The description is as above. Particulars: source organism: Cryptosporidium parvum Iowa II.
The target in experiment [6] is HLA-A*69:01. The experiment is described as above. The settings on record: source organism: Cryptosporidium parvum Iowa II.
The target in another experiment is HLA-A*02:11. The experiment is described as above. The settings on record: source organism: Cryptosporidium parvum Iowa II.
The next experiment deals with HLA-A*29:02. The description is as above. Particulars: source organism: Cryptosporidium parvum Iowa II.
The target in experiment [7] is HLA-A*26:01. Described as above. The settings on record: source organism: Cryptosporidium parvum Iowa II.
A further experiment concerns the target HLA-A*02:12. The description is as above. The settings on record: source organism: Cryptosporidium parvum Iowa II.
A further experiment concerns the target HLA-A*02:19. The description is as above. Particulars: source organism: Cryptosporidium parvum Iowa II.
Experiment [8] deals with HLA-A*02:03. The experiment is described as above. Particulars: source organism: Cryptosporidium parvum Iowa II.
For experiment [9], the target named is HLA-B*07:02. The experiment can be described thus: IEDB peptide-MHC binding, purified MHC/competitive/fluorescence; filed as Kd, often an IC50 or EC50 that approximates it; ≥ and ≤ were set here for values at or beyond the usual limits of such assays. The settings on record: source organism: Human immunodeficiency virus 1.
A further experiment concerns the target HLA-A*02:06. The experiment is described as above. The settings on record: source organism: Human immunodeficiency virus 1.
Experiment [10] deals with HLA-A*02:01. The experiment is described as above. Particulars: source organism: Human immunodeficiency virus 1.
The target in experiment [11] is HLA-A*30:01. The description is as above. The settings on record: source organism: Human immunodeficiency virus 1.
The target of experiment [12] is HLA-A*68:02. The experiment is described as above. Particulars: source organism: Human immunodeficiency virus 1.
The target of experiment [13] is HLA-A*26:01. The description is as above. The settings on record: source organism: Human immunodeficiency virus 1.
A further experiment deals with HLA-A*26:02. The description is as above. Particulars: source organism: Human immunodeficiency virus 1.
Experiment [14] has as its target HLA-A*02:03. Described as above. Particulars: source organism: Human immunodeficiency virus 1.
A further experiment concerns the target HLA-B*08:01. The description is as above. The settings on record: source organism: Human immunodeficiency virus 1.
In another experiment the target is HLA-B*39:01. The experiment can be described thus: IEDB peptide-MHC binding, purified MHC/direct/fluorescence; filed as Kd, often an IC50 or EC50 that approximates it; ≥ and ≤ were set here for values at or beyond the usual limits of such assays. Particulars: source organism: Cryptosporidium parvum Iowa II.
Setting [15] is: source organism: Bacillus anthracis.
The mark [16] stands for this setting: source organism: Cryptosporidium parvum Iowa II.

Take WFREDRSPV: the Kd in the experiment with HLA-B*07:02 [1], with HLA-A*11:01, with HLA-B*15:17 (setting [15]), in the experiment with HLA-A*31:01, in the experiment with HLA-B*51:01 (setting [15]) and with HLA-B*38:01 was ≥ 20 µM in each case. Besides, the Kd with HLA-A*02:01 [2] (setting [15]), with HLA-B*15:01 (setting [15]), with HLA-B*58:01, in the experiment with HLA-B*46:01 (setting [15]), in the experiment with HLA-A*30:01 [3] and in the experiment with HLA-B*40:01 was ≥ 20 µM in each case. Also, the Kd (as a rule, a measure of binding affinity in units of concentration) is ≥ 20 µM with HLA-B*48:01; ≥ 20 µM in the experiment with HLA-A*01:01; ≥ 20 µM with HLA-B*27:05; ≥ 20 µM with HLA-B*57:01 (setting [15]); 0.145 µM with HLA-B*18:01 (setting [15]); ≥ 20 µM with HLA-A*03:01 (setting [15]). Further, the Kd in the experiment with HLA-B*15:09 (source organism: Bacillus anthracis str. A0488) and in the experiment with HLA-A*69:01 [4] was ≥ 20 µM throughout.

As to DHIPIINTL, the Kd with HLA-B*15:17 (setting [16]), in the experiment with HLA-A*24:03, with HLA-B*51:01 (setting [16]), with HLA-A*02:16, with HLA-A*02:01 [2] (setting [16]) and in the experiment with HLA-B*15:01 (setting [16]) was ≥ 20 µM in each case. The Kd with HLA-B*27:03, with HLA-B*46:01 (setting [16]), with HLA-A*68:02 [5], in the experiment with HLA-A*69:01 [6], with HLA-A*02:11 and with HLA-A*29:02 was ≥ 20 µM each time. Also, the Kd with HLA-A*26:01 [7], with HLA-A*02:12, with HLA-A*02:19, in the experiment with HLA-A*02:03 [8], with HLA-B*57:01 (setting [16]) and in the experiment with HLA-B*18:01 (setting [16]) was ≥ 20 µM each time. For the same sequence, the Kd with HLA-A*03:01 (setting [16]) is ≥ 20 µM.

On to EIKSLFNTI, for which the Kd with HLA-B*07:02 [9] is 6 µM; with HLA-A*02:06 it was 0.0617 µM; with HLA-A*02:01 [10], ≥ 20 µM; in the experiment with HLA-B*15:09 (source organism: Human immunodeficiency virus 1) it was ≥ 20 µM; with HLA-A*30:01 [11], ≥ 20 µM; with HLA-A*68:02 [12], 0.036 µM. For the same sequence, the Kd with HLA-A*26:01 [13] is ≥ 20 µM; in the experiment with HLA-A*26:02 it was ≥ 20 µM; in the experiment with HLA-A*02:03 [14] it was ≥ 20 µM; with HLA-B*08:01, 1.62 µM.

In the case of ILTRLALFF, the Kd with HLA-B*15:17 (setting [16]), in the experiment with HLA-A*24:03, with HLA-B*51:01 (setting [16]), with HLA-A*02:16, in the experiment with HLA-B*15:01 (setting [16]) and with HLA-B*27:03 was ≥ 20 µM each time. Besides, the Kd in the experiment with HLA-B*46:01 (setting [16]), with HLA-A*68:02 [5], in the experiment with HLA-A*69:01 [6], with HLA-A*02:11, with HLA-B*39:01 and with HLA-A*26:01 [7] was ≥ 20 µM each time. Moreover, the equilibrium dissociation constant (Kd) in the experiment with HLA-A*02:12, in the experiment with HLA-A*02:19, with HLA-A*02:03 [8], with HLA-B*57:01 (setting [16]), in the experiment with HLA-B*18:01 (setting [16]) and in the experiment with HLA-A*03:01 (setting [16]) was ≥ 20 µM each time.
